Where no end group is shown, it is not given here.
What was measured:
[1] = test system: RIN-m cells; test: MTT viability assay, peptide alone or mixed with hIAPP; assay type: cell-based; details: hIAPP mixed with peptide 1:1, MTT assay
Text: Cytoprotection can likewise be measured by a number of assays known to the art. One such assay is the MTT assay, which is a colorimetric assay for assessing cell metabolic activity. NAD(P)H-dependent cellular oxidoreductase enzymes in the cytosolic compartment of a cell reduces the tetrazolium dye MTT 3-(4,5-dimethylthiazol-2-yl)-2,5-diphenyltetrazolium bromide to an insoluble form, formazan, which has a purple color. The reduction of MTT (and other tetrazolium dyes) depends on the cellular metabolic activity, so a loss of color in the course of performing an MTT assay indicates low metabolic activity, and is thus an indicator of cell damage and death.
To test cell viability, a MTT colorimetric assay measuring the conversion of yellow tetrazolium salt into purple formazan crystal catalyzed by a mitochondrial reductase was used. Cell viability studies were performed using RIN-m cells (ATCC, CRL-2057). An equal number of RIN-m cells were plated in triplicate and incubated overnight in 96-well plates. The next day, fresh RPMI-1640 with phenol red supplemented with 10% FBS was added to cells. Hexafluoroisopropanol (HFIP) was removed from each individual human and animal IAPP using a centrivap concentrator (LabOnco). All IAPP peptide samples were re-suspended in RPMI-1640 with 10% FBS. To ensure even re-suspension, each resulting IAPP-containing vial was scraped with a pipette tip six times and vortexed (Vortex Genie Mixer) for 15 seconds. The whole process, from drying each IAPP peptide to adding each IAPP peptide to the cells was uniform to ensure that each sample was incubated for an equal amount of time with each IAPP peptide. IAPP peptides were added to cells and incubated for 46 hours at 37° C. Post-incubation, the media in each well was replaced by fresh DMEM/F-12 without phenol red. MTT (3-(4,5-dimethyl-2-thiazolyl)-2,5-diphenyl-tetrazolium bromide) was added into each well and incubated at 37° C. for 2 hours. Formazan crystals, formed on the bottom of the wells, were re-suspended in solubilization buffer (20% SDS and 50% dimethylformamide). The absorbance in each well was taken at 570 nm using a Multiskan FC Microplate Photometer (Thermos Fisher Scientific). Media were obtained from ATCC. All incubations took place in a water jacketed incubator in 5% carbon dioxide at 37° C. (Shell Lab).
The MTT viability assay was used to measure cell viability of RIN-m cells upon addition of hIAPP alone, the addition of each animal IAPP peptide alone, and hIAPP mixed with each animal IAPP peptide (results shown in FIG. 5). RIN-m cells alone were used as a control and set to 100% cell viability. […] Addition of raccoon IAPP to hIAPP increased the cell viability from 55% to an average of 72% (p=0.005705). Addition of chicken IAPP variant to hIAPP increased cell viability to an average of 76% (p=0.013556).

[2] = target: T1, human IAPP (hIAPP) (Homo sapiens, UniProt P10997); test: Thioflavin T binding assay of hIAPP aggregation when mixed with IAPP peptides; assay type: biochemical; details: for inhibition of hIAPP aggregation (summary statement): peptide mixed with hIAPP, no single assay (thioflavin T and AFM); for inhibition of hIAPP aggregation, thioflavin T binding: hIAPP mixed with peptide, incubated at 37° C. with shaking
T1 construct: This 37 amino acid polypeptide is co-secreted from pancreatic β-islet cells with insulin
T1 sequence (P10997 34-70 limits assumed): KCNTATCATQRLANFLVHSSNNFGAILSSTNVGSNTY
Text: Any of a number of assays known to the art can be used to evaluate the ability of IAPP peptides to inhibit hIAPP aggregation and/or protect cells from hIAPP toxicity. Thioflavin T (ThT) binding is one such technique for identifying amyloid formation in real time. Human IAPP is known to bind thioflavin T during aggregation and amyloid formation, and upon binding to amyloid fibrils ThT will give a strong fluorescence signal at approximately 482 nm when excited at 450 nm. ThT fluorescence correlates linearly with amyloid concentration in a sample and therefore can be used to determine the amount of aggregation in a sample. This technique can therefore be used for identifying substances with amyloid-inhibiting potential when such substances are mixed with human IAPP under conditions known to result in the formation of aggregates by hIAPP. Determining the extent of aggregation can also be determined using other techniques, such as Atomic Force Microscopy (AFM), which can provide information about particle dimensions, shape, and substructure with nanometer resolution. In the foregoing assays and others that can be used by one of skill in the art, significant inhibition can be determined using a t-test by measuring the difference between hIAPP and hIAPP combined with an IAPP peptide.
To identify IAPP peptides having inhibitory potential against hIAPP aggregation, the peptides shown in FIG. 1 from a number of species (cow, degu, guinea pig, horse, pig, rat, and sheep[…]) were mixed with hIAPP at a 2:1 molar ratio of animal peptide to hIAPP and incubated under conditions known to promote hIAPP aggregation and fibril formation. IAPP alone, or hIAPP mixed with an animal IAPP, was pipetted into a glass tube and the HFIP was removed under speed-vacuum. The resulting peptide sample was dissolved in 20 mM Tris buffer pH 7.4.
37 μM human IAPP was mixed with 75 μM of each indicated animal IAPP. Aggregation was initiated by incubating samples at 37° C. with shaking at 200 rpm for 40 minutes. At indicated time points, a 17 μL aliquot of each sample was mixed with 663 μL of 50.0 μM thioflavin T in 20 mM Tris buffer (pH 7.4). Thioflavin T fluorescence emission was then recorded at 488 nm using a Hitachi F-7000 fluorescence spectrophotometer.
After 40 minutes, these samples were monitored for their ability to bind thioflavin T (see FIG. 2) and their ability to form fibrils as identified with atomic force microscopy.
Human IAPP (37 μM) was mixed with each of the indicated Weddell seal variants (at 75 μM) and incubated for 30 minutes at 37° C. with shaking at 200 rpm. The Weddell seal IAPP peptides were likewise subjected to atomic force microscopy as described in Example 2.
Human IAPP was mixed with each of the indicated raccoon variants and incubated at 37° C. with shaking.
Human IAPP was mixed with each of the indicated chicken variants and incubated at 37° C. with shaking. […] However, it was able to protect cells in MTT assays, so it is believed to inhibit formation of toxic oligomers while having a lesser effect on inhibiting the formation of fibers (which are less toxic and less able to bind ThT).
Human IAPP was mixed with each of the indicated chicken variants and incubated at 37° C. with shaking.

[3] = target: T1, human IAPP (hIAPP); test: Atomic force microscopy (AFM) of hIAPP fibril formation when mixed with IAPP peptides; assay type: biochemical; details: 37 μM hIAPP and 75 μM peptide, 37° C. with shaking for 40 minutes
Description: Samples labeled with hIAPP contained 40 μM hIAPP. The sample with pramlintide and hIAPP contained a 2:1 molar mixture (80 μM Pramlintide mixed with 40 μM hIAPP). The samples with raccoon IAPP and Pramlintide alone contained 40 μM of the indicated peptides. Each sample was incubated for 40 minutes at 37° C. with shaking; conditions known to promote hIAPP amyloid formation. All scans show raw data with no flattening and are […].
Each sample contained 37 μM hIAPP and 75 μM of the indicated peptide. Samples were incubated at 37° C. with shaking for 40 minutes. All scans show raw data with no flattening and are […].
Each sample contained 37 μM hIAPP mixed with 37 μM of the indicated peptide. Samples were incubated at 37° C. with shaking for 30 minutes before depositing each sample onto freshly cleaved mica.
Samples of hIAPP with or without animal IAPP were prepared as described in Example 1 and were then incubated with shaking at 37° C. for 40 minutes. After this incubation, 17 μL of each sample was deposited onto freshly cleaved mica. Samples were incubated for 5 minutes at room temperature before washing with 200 μL sterile water. After drying, the samples were scanned using an MFP-3D atomic force microscope (Asylum Research) set on A/C mode and a 240 m silicon cantilever (Olympus).
Many of the animal IAPP variants are known to likewise form fibrils and yield amyloid-plaques when scanned via AFM. […] This is in spite of the fact that all of these IAPP peptides (except polar bear IAPP) are known to aggregate and form fibrils themselves under these or similar conditions

| Substance | rescue / protection of cells from hIAPP toxicity (words) [1] | inhibition of hIAPP aggregation (summary statement) [2] | inhibition of hIAPP fibril formation, AFM [3] | inhibition of hIAPP aggregation, thioflavin T binding [2] |
| --- | --- | --- | --- | --- |
| SEQ ID NO:23: raccoon IAPP peptide with amino acids removed from the N-terminal end (ATQRLANFLLRSSNNLGAILSPTNVGSNTY; Procyon lotor truncation) | failed to inhibit aggregation of hIAPP or reduce its cytotoxicity | failed to inhibit aggregation of hIAPP or reduce its cytotoxicity | – | – |
| R8-30: truncated raccoon IAPP peptide of FIG. 19; sequence not printed in the text (VTQRLANFLLRSSNNLGAILSPT) | – | – | did not inhibit hIAPP aggregation | – |
| SEQ ID NO:21: raccoon IAPP peptide with amino acids removed from the N-terminal end (FLLRSSNNLGAILSPTNVGSNTY; Procyon lotor truncation) | failed to inhibit aggregation of hIAPP or reduce its cytotoxicity | failed to inhibit aggregation of hIAPP or reduce its cytotoxicity | – | – |
| KCNTATCATQRLANFLLRSSNNLGAILSPTNVGSNTY (Procyon lotor mutation) [Rac_V8A] | – | – | – | inhibited hIAPP aggregation |
| R8-23: truncated raccoon IAPP peptide of FIG. 19; sequence not printed in the text (VTQRLANFLLRSSNNL) | – | – | did not inhibit hIAPP aggregation | – |
| KCNTATCVTQRLANFLVRSSNNLGAILSPTNVGSNTY (Procyon lotor mutation) [Rac_L16V] | – | – | – | inhibited hIAPP aggregation |
| R1-23: truncated raccoon IAPP peptide of FIG. 19; sequence not printed in the text (KCNTATCVTQRLANFLLRSSNNL) | – | – | did not inhibit hIAPP aggregation | – |
| SEQ ID NO:25: raccoon IAPP peptide with amino acids removed from the middle (VTQRLANFLLRSSNNL; Procyon lotor truncation) | failed to inhibit aggregation of hIAPP or reduce its cytotoxicity | failed to inhibit aggregation of hIAPP or reduce its cytotoxicity | – | – |
| KCNTATCATQRLANFLVRSSNNFGAILSPTNVGSNTY (KTATCATQRLANFLVHSSNNLGAILSPTNVGSNTY; Leptonychotes weddellii mutation) [WS_RP] | rescued cells from hIAPP toxicity | – | – | – |
| KCNTATCVTQRLADFLVRSSSNIGAILSPTNVGSNTY (Gallus gallus mutation) [Ch_Y26L] | rescued cells from hIAPP-induced cytotoxicity | – | – | inhibited hIAPP aggregation |
| KCNTATCVTQRLADFLLRSSNNLGAILSPTNVGSNTY (Procyon lotor mutation) [Rac_N13D] | – | – | – | inhibited hIAPP aggregation |
| SEQ ID NO:24: raccoon IAPP peptide with amino acids removed from the middle (VTQRLANFLLRSSNNLGAILSPT; Procyon lotor truncation) | failed to inhibit aggregation of hIAPP or reduce its cytotoxicity | failed to inhibit aggregation of hIAPP or reduce its cytotoxicity | – | – |
| SEQ ID NO:22: raccoon IAPP peptide with amino acids removed from the middle (FLLRSSNNLGAILSPTN; Procyon lotor truncation) | failed to inhibit aggregation of hIAPP or reduce its cytotoxicity | failed to inhibit aggregation of hIAPP or reduce its cytotoxicity | – | – |
| KCNTATCVTQRLADFLLRSSSNIGAIYSPTNVGSNTY (Gallus gallus mutation) [Ch_V16L] | rescued cells from hIAPP-induced cytotoxicity | – | – | inhibited hIAPP aggregation |
| KCNTATCVTQRLANFLLRSSNNIGAILSPTNVGSNTY (Procyon lotor mutation) [Rac_L22I] | – | – | – | inhibited hIAPP aggregation |
| KCNTATCVTQRLANFLLRSSNNLGAILSPT (ends and bridges not checked; cysteine pairing not given here) [R1-30] | rescued cells from hIAPP-induced cytotoxicity | – | – | inhibited hIAPP aggregation |

Source: patent publication US12522635B2, “Amyloid peptide variants” (Loyola Marymount University, priority 2019, dated 2026)
